B1: YhdE, a Maf-like protein in Escherichia coli (nucleotide pyrophosphatase) (enzyme, UniProt P25536 1-197, looked up)
chain: MTSLYLASGSPRRQELLAQLGVTFERIVTGIEEQRQPQESAQQYVVRLAREKARAGVAQTAKDLPVLGADTIVILNGEVLEKPRDAEHAAQMLRKLSGQTHQVMTAVALADSQHILDCLVVTDVTFRTLTDEDIAGYVASDEPLDKAGAYGIQGLGGCFVRKINGSYHAVVGLPLVETYELLSNFNALREKRDKHDG
notes: YhdE, Maf-like protein of Escherichia coli; the open reading frame of yhdE cloned into pFO4 (BamHI/EcoRI); also called recombinant YhdE; source: E. coli BL21(DE3), purified (Ni2+ chelation, size-exclusion chromatography)
B2: YhdE (Escherichia coli K-12) (protein)
chain: TSLYLASGSPRRQELLAQLGVTFERIVTGIEEQRQPQESAQQYVVRLAREKARAGVAQTAKDLPVLGADTIVILNGEVLEKPRDAEHAAQMLRKLSGQTHQVMTAVALADSQHILDCLVVTDVTFRTLTDEDIAGYVASDEPLDKAGAYGIQGLGGCFVRKINGSYHAVVGLPLVETYELLSNFNALREKRDKHDG
notes: dimer in solution ~45 kDa, monomer ~22 kDa; PDB entries are of the E33A mutant

What was measured:
[1] = biological target: the molecule itself; experiment: SEC; size-exclusion chromatography after Ni2+ chelation; Bis-Tris buffer, pH 6.75; YhdE eluted at approximately 81 mL, approximately 45 kDa
purified protein [2] = substrate: Cc1cn([C@H]2C[C@H](O)[C@@H](COP(=O)(O)OP(=O)(O)OP(=O)(O)O)O2)c(=O)[nH]c1=O; experiment: purified protein; type: biochemical, Escherichia coli; conditions: 2 mM Mn2+, 20 mM HEPES pH 7.0, 25 °C, 1.5 µM enzyme, apparent Km, Hill coefficient 2.2 (positive cooperativity)
purified protein [3] = substrate: O=c1ccn([C@@H]2O[C@H](COP(=O)(O)OP(=O)(O)OP(=O)(O)O)[C@@H](O)[C@H]2O)c(=O)[nH]1; experiment: purified protein; type: biochemical, Escherichia coli; conditions: 2 mM Mn2+, 20 mM HEPES pH 7.0, 25 °C, 1.5 µM enzyme, apparent Km, Hill coefficient 1.9 (positive cooperativity)

Row | Protein | stoichiometry N [1] | Km (purified protein [2]) [µM] | Vmax (purified protein [2]) [µM/min] | kcat (purified protein [2]) [s⁻¹] | kcat/Km (purified protein [2]) [M⁻¹ s⁻¹] | Km (purified protein [3]) [µM] | Vmax (purified protein [3]) [µM/min] | kcat (purified protein [3]) [s⁻¹] | kcat/Km (purified protein [3]) [M⁻¹ s⁻¹]
1 | B1 | 2 | – | – | – | – | – | – | – | –
2 | B2 | – | 90 | 3600 | 43 | 503000 | 500 | 8400 | 95 | 191000

From paper PMC4319933, “Insights into the Cellular Function of YhdE, a Nucleotide Pyrophosphatase from Escherichia coli” (PLoS ONE, 2015)
